# Measured values published in US20120034160A1 (AbbVie / Abbott, published 2012).
# Substitutions are numbered along the chain they refer to.
# T1: Recombinant Human IL-17 (human, UniProt Q16552 20-155, limits assumed)
# T1 sequence (looked up): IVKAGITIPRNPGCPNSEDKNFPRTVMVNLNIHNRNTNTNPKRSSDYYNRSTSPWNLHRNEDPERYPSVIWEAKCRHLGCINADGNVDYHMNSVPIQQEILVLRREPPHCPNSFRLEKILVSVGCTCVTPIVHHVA
# B1: DVD1620 (bispecific antibody, human IgG1, kappa)
# heavy: not shown
# light: DIQMTQSPSSLSASVGDRVTITCRASSGIISYIDWFQQKPGKAPKRLIYATFDLASGVPSRFSGSGSGTDYTLTISSLQPEDFATYYCRQVGSYPETFGQGTKLEIKRTVAAPDIQMTQSPSSLSASVGDRVTITCRASGNIHNYLTWYQQTPGKAPKLLIYNAKTLADGVPSRFSGSGSGTDYTFTISSLQPEDIATYYCQHFWSIPYTFGQGTKLQITRTVAAPSVFIFPPSDEQLKSGTASVVCLLNNFYPREAKVQWKVDNALQSGNSQESVTEQDSKDSTYSLSSTLTLSKADYEKHKVYACEVTHQGLSSPVTKSFNRGEC
# B2: DVD1622 (bispecific antibody, human IgG1, kappa)
# heavy: not shown
# light: B1 light
# B3: DVD1610 (bispecific antibody, human IgG1, kappa)
# heavy: not shown
# light: EIVLTQSPDFQSVTPKEKVTITCRASQNIGSELHWYQQKPDQSPKLLIKYASHSISGVPSRFSGSGSGTDFTLTINGLEAEDAATYYCHQSDTLPHTFGQGTKVDIKRTVAAPSVFIFPPDIQMTQSPSSLSASVGDRVTITCRASGNIHNYLTWYQQTPGKAPKLLIYNAKTLADGVPSRFSGSGSGTDYTFTISSLQPEDIATYYCQHFWSIPYTFGQGTKLQITRTVAAPSVFIFPPSDEQLKSGTASVVCLLNNFYPREAKVQWKVDNALQSGNSQESVTEQDSKDSTYSLSSTLTLSKADYEKHKVYACEVTHQGLSSPVTKSFNRGEC
# B4: DVD1612 (bispecific antibody, human IgG1, kappa)
# heavy: not shown
# light: B3 light
# B5: DVD1616 (bispecific antibody, human IgG1, kappa)
# heavy: not shown
# light: EIVLTQSPDFQSVTPKEKVTITCRASQNIGSELHWYQQKPDQSPKLLIKYASHSISGVPSRFSGSGSGTDFTLTINGLEAEDAATYYCHQSDTLPHTFGQGTKVDIKRTVAAPSVFIFPPDTVVTQSPAFLSVTPGEKVTITCITSTDIDVDMNWYQQKPDQPPKLLISQGNTLRPGVPSRFSSSGSGTDFTFTISSLEAEDAATYYCLQSDNLPLTFGQGTKLEIKRTVAAPSVFIFPPSDEQLKSGTASVVCLLNNFYPREAKVQWKVDNALQSGNSQESVTEQDSKDSTYSLSSTLTLSKADYEKHKVYACEVTHQGLSSPVTKSFNRGEC
# B6: DVD1619 (bispecific antibody, human IgG1, kappa)
# heavy: not shown
# light: DIQMTQSPSSLSASVGDRVTITCRASGNIHNYLTWYQQTPGKAPKLLIYNAKTLADGVPSRFSGSGSGTDYTFTISSLQPEDIATYYCQHFWSIPYTFGQGTKLQITRTVAAPDIQMTQSPSSLSASVGDRVTITCRASSGIISYIDWFQQKPGKAPKRLIYATFDLASGVPSRFSGSGSGTDYTLTISSLQPEDFATYYCRQVGSYPETFGQGTKLEIKRTVAAPSVFIFPPSDEQLKSGTASVVCLLNNFYPREAKVQWKVDNALQSGNSQESVTEQDSKDSTYSLSSTLTLSKADYEKHKVYACEVTHQGLSSPVTKSFNRGEC
# B7: DVD1621 (bispecific antibody, human IgG1, kappa)
# heavy: not shown
# light: B6 light
# B8: DVD1614 (bispecific antibody, human IgG1, kappa)
# heavy: not shown
# light: EIVLTQSPDFQSVTPKEKVTITCRASQNIGSELHWYQQKPDQSPKLLIKYASHSISGVPSRFSGSGSGTDFTLTINGLEAEDAATYYCHQSDTLPHTFGQGTKVDIKRTVAAPSVFIFPPDTQVTQSPSSLSASVGDRVTITCITSTDIDVDMNWYQQKPGKPPKLLISQGNTLRPGVPSRFSSSGSGTDFTFTISSLQPEDFATYYCLQSDNLPLTFGQGTKLEIKRTVAAPSVFIFPPSDEQLKSGTASVVCLLNNFYPREAKVQWKVDNALQSGNSQESVTEQDSKDSTYSLSSTLTLSKADYEKHKVYACEVTHQGLSSPVTKSFNRGEC
# B9: DVD1618 (bispecific antibody, human IgG1, kappa)
# heavy: not shown
# light: B8 light with D121E, Q123T
# B10: DVD1609 (bispecific antibody, human IgG1, kappa)
# heavy: not shown
# light: DIQMTQSPSSLSASVGDRVTITCRASGNIHNYLTWYQQTPGKAPKLLIYNAKTLADGVPSRFSGSGSGTDYTFTISSLQPEDIATYYCQHFWSIPYTFGQGTKLQITRTVAAPSVFIFPPEIVLTQSPDFQSVTPKEKVTITCRASQNIGSELHWYQQKPDQSPKLLIKYASHSISGVPSRFSGSGSGTDFTLTINGLEAEDAATYYCHQSDTLPHTFGQGTKVDIKRTVAAPSVFIFPPSDEQLKSGTASVVCLLNNFYPREAKVQWKVDNALQSGNSQESVTEQDSKDSTYSLSSTLTLSKADYEKHKVYACEVTHQGLSSPVTKSFNRGEC
# B11: DVD1611 (bispecific antibody, human IgG1, kappa)
# heavy: not shown
# light: B10 light
# B12: DVD1615 (bispecific antibody, human IgG1, kappa)
# heavy: not shown
# light: DTVVTQSPAFLSVTPGEKVTITCITSTDIDVDMNWYQQKPDQPPKLLISQGNTLRPGVPSRFSSSGSGTDFTFTISSLEAEDAATYYCLQSDNLPLTFGQGTKLEIKRTVAAPSVFIFPPEIVLTQSPDFQSVTPKEKVTITCRASQNIGSELHWYQQKPDQSPKLLIKYASHSISGVPSRFSGSGSGTDFTLTINGLEAEDAATYYCHQSDTLPHTFGQGTKVDIKRTVAAPSVFIFPPSDEQLKSGTASVVCLLNNFYPREAKVQWKVDNALQSGNSQESVTEQDSKDSTYSLSSTLTLSKADYEKHKVYACEVTHQGLSSPVTKSFNRGEC
# B13: DVD1613 (bispecific antibody, human IgG1, kappa)
# heavy: not shown
# light: DTQVTQSPSSLSASVGDRVTITCITSTDIDVDMNWYQQKPGKPPKLLISQGNTLRPGVPSRFSSSGSGTDFTFTISSLQPEDFATYYCLQSDNLPLTFGQGTKLEIKRTVAAPSVFIFPPEIVLTQSPDFQSVTPKEKVTITCRASQNIGSELHWYQQKPDQSPKLLIKYASHSISGVPSRFSGSGSGTDFTLTINGLEAEDAATYYCHQSDTLPHTFGQGTKVDIKRTVAAPSVFIFPPSDEQLKSGTASVVCLLNNFYPREAKVQWKVDNALQSGNSQESVTEQDSKDSTYSLSSTLTLSKADYEKHKVYACEVTHQGLSSPVTKSFNRGEC
# B14: DVD1617 (bispecific antibody, human IgG1, kappa)
# heavy: not shown
# light: B13 light with D1E, Q3T
# Target: T1, Recombinant Human IL-17
# Assay: cell-based or functional assay
N-terminal VD IL-17 Neutralization Assay EC50,C-terminal VD IL-17 Neutralization Assay EC50,Binder
0.0067 nM,–,B1
0.0083 nM,–,B2
0.0046 nM,–,B3
0.0238 nM,–,B4
0.0062 nM,–,B5
–,0.0345 nM,B6
–,0.0397 nM,B7
0.0142 nM,–,B8
0.0045 nM,–,B9
–,0.173 nM,B10
–,0.3 nM,B11
–,0.061 nM,B12
–,0.101 nM,B13
–,0.0424 nM,B14

# Target: Recombinant Human IL-1β (human, UniProt P01584 117-269)
# Assay: cell-based or functional assay
C-Terminal VD IL-1β Neutralization Assay EC50,N-Terminal VD IL-1β Neutralization Assay EC50,Binder
17.4 nM,–,B1
3.92 nM,–,B2
1 nM,–,B3
0.153 nM,–,B4
1.12 nM,–,B5
–,0.139 nM,B6
–,0.0114 nM,B7
0.801 nM,–,B8
2.75 nM,–,B9
–,0.0038 nM,B10
–,0.0041 nM,B11
–,0.191 nM,B12
–,0.246 nM,B13
–,0.247 nM,B14
